Measurements published in patent publication US20240401082A1 (Sanofi, published 2024).

T1: human complement C1s enzyme (activated C1s) (human, UniProt P09871 16-437; P09871 438-688)
T1 sequence 1: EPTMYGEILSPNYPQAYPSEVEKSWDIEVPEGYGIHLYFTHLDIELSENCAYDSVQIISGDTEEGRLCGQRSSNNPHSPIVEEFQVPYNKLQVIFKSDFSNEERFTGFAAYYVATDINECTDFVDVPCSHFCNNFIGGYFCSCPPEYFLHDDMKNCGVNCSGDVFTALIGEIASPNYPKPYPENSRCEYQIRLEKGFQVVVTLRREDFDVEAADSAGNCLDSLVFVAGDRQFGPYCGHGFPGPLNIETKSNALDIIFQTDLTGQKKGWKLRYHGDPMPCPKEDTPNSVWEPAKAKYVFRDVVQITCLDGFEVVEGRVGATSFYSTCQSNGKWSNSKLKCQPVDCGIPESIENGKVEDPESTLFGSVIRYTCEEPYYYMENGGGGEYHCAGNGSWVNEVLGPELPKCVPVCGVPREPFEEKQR
T1 sequence 2: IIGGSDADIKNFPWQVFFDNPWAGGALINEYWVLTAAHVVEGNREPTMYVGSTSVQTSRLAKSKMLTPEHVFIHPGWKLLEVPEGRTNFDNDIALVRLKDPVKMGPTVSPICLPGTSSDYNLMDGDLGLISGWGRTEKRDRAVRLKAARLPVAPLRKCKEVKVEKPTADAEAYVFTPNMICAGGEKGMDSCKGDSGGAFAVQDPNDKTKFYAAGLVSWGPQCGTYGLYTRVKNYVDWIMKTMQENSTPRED


Assays:
[1] = biological target: T1, human complement C1s enzyme (activated …); assay: cell-based or functional assay
[2] = biological target: T2, human complement factor Bb (human, UniProt P00751 260-764); assay: cell-based or functional assay
[3] = biological target: T1, human complement C1s enzyme (activated …); assay: BLI (Octet), biotinylated target on streptavidin sensor
Text: (§1) Bio-layer interferometry (BLI) was used to assess the recombinant proteins' target engagement to and binding affinity for complement C1s enzyme (active C1s or “C1s” herein) and factor Bb (Bb) (Complement Technology, Tyler, TX, USA). C1s and Bb were biotinylated with EZ-Link™ Sulfo-NHS-LC-LC-Biotin (Thermo Fisher, Waltham, MA, USA) according to manufacturer instructions. Biotinylated C1s or Bb was loaded on Octet® Streptavidin (SA) Biosensors (Sartorius, Göttingen, Germany), followed by a concentration range of purified proteins. To assess dual target engagement, biotinylated active C1s or Bb was loaded onto sensors, followed by purified proteins (“first association phase”), followed by the non-captured complement target (Bb or active C1s, non-biotinylated; “second association phase”). The assays were performed at 30° C. using PBS with 0.1% Tween 20 as a diluent (FIG. 3).

[4] = biological target: T2, human complement factor Bb; assay: as above
Text: as §1

T2 sequence (P00751 260-764): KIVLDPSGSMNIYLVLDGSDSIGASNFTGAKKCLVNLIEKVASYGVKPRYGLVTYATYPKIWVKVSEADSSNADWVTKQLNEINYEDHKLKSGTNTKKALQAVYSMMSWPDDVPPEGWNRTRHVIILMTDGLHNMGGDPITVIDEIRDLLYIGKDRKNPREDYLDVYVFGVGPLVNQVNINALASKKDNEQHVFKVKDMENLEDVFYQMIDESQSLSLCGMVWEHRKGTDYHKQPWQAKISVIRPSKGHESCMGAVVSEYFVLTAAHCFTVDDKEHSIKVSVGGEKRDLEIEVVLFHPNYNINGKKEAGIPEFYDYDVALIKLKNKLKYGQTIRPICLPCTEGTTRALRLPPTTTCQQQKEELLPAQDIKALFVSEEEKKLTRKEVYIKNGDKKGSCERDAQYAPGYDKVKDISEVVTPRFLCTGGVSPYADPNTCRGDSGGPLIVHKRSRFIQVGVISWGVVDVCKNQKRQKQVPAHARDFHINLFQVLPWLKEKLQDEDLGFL

Binder | IC50 CP (Wieslab) [1] | IC50 AP (Wieslab) [2] | Kd [3] | koff [3] | kon [3] | Kd [4] | koff [4] | kon [4] | IC50 AP (Wieslab); curve not saturated, estimated [2]
construct #8: αBb scFab-(G4S)3-αC1s scFab (bispecific antibody, Signal peptide marked by boldface only) DIQMTQSPSTLSASVGDRVTITCKASQDVGTAVAWYQQKPGKAPKLLIYWASTRHTGVPDRFSGSGSGTDFTLTISSLQAEDFAVYFCHQHSSNPLTFGQGTKLEIKRTVAAPSVFIFPPSDEQLKSGTASVVCLLNNFYPREAKVQWKVDNALQSGNSQESVTEQDSKDSTYSLSSTLTLSKADYEKHKVYACEVTHQGLSSPVTKSFNRGECGGGGSGGGGSGGGGSGGGGSGGGGSGGGGSGGGGSEVQLVESGGGLVKPGGSLRLSCAASGFTFSNYAMSWVRQAPGKRLEWVATISNRGSYTYYPDSVKGRFTISRDNAKNSLYLQMNSLRAEDTALYYCARERPMDYWGQGTLVTVSSASTKGPSVFPLAPCSRSTSESTAALGCLVKDYFPEPVTVSWNSGALTSGVHTFPAVLQSSGLYSLSSVVTVPSSSLGTKTYTCNVDHKPSNTKVDKRVGGGGGSGGGGSGGGGSDIVLTQSPDSLAVSLGERATISCKASQSVDYDGDSYMNWYQQKPGQPPKILIYDASNLESGIPARFSGSGSGTDFTLTISSLEPEDFAIYYCQQSNEDPWTFGGGTKVEIKRTVAAPSVFIFPPSDEQLKSGTASVVCLLNNFYPREAKVQWKVDNALQSGNSQESVTEQDSKDSTYSLSSTLTLSKADYEKHKVYACEVTHQGLSSPVTKSFNRGECGGGGSGGGGSGGGGSGGGGSGGGGSGGGGSGGGGSQVQLVQSGAEVKKPGASVKLSCTASGFNIKDDYIHWVKQAPGQGLEWIGRIDPADGHTKYAPKFQVKVTITADTSTSTAYLELSSLRSEDTAVYYCARYGYGREVFDYWGQGTTVTVSSASTKGPSVFPLAPCSRSTSESTAALGCLVKDYFPEPVTVSWNSGALTSGVHTFPAVLQSSGLYSLSSVVTVPSSSLGTKTYTCNVDHKPSNTKVDKRV | 87.7 nM | 420 nM | 2.1 nM | 0.00063 s⁻¹ | 300000 M⁻¹ s⁻¹ | 1.8 nM | 0.00021 s⁻¹ | 120000 M⁻¹ s⁻¹ | 
construct #5: αC1s scFv-(G4S)2-αBb scFv (bispecific antibody) QVQLVQSGAEVKKPGASVKLSCTASGFNIKDDYIHWVKQAPGQGLEWIGRIDPADGHTKYAPKFQVKVTITADTSTSTAYLELSSLRSEDTAVYYCARYGYGREVFDYWGQGTTVTVSSGGGGSGGGGSGGGGSDIVLTQSPDSLAVSLGERATISCKASQSVDYDGDSYMNWYQQKPGQPPKILIYDASNLESGIPARFSGSGSGTDFTLTISSLEPEDFAIYYCQQSNEDPWTFGGGTKVEIKGGGGSGGGGSEVQLVESGGGLVKPGGSLRLSCAASGFTFSNYAMSWVRQAPGKRLEWVATISNRGSYTYYPDSVKGRFTISRDNAKNSLYLQMNSLRAEDTALYYCARERPMDYWGQGTLVTVSSGGGGSGGGGSGGGGSDIQMTQSPSTLSASVGDRVTITCKASQDVGTAVAWYQQKPGKAPKLLIYWASTRHTGVPDRFSGSGSGTDFTLTISSLQAEDFAVYFCHQHSSNPLTFGQGTKLEIK | 216 nM |  |  |  |  |  |  |  | ~2830 nM
construct #13: αC1s scFab-(G4S)2-αBb scFv (bispecific antibody, Residues 1-20 were left out as the signal peptide, which is marked by boldface only) DIVLTQSPDSLAVSLGERATISCKASQSVDYDGDSYMNWYQQKPGQPPKILIYDASNLESGIPARFSGSGSGTDFTLTISSLEPEDFAIYYCQQSNEDPWTFGGGTKVEIKRTVAAPSVFIFPPSDEQLKSGTASVVCLLNNFYPREAKVQWKVDNALQSGNSQESVTEQDSKDSTYSLSSTLTLSKADYEKHKVYACEVTHQGLSSPVTKSFNRGECGGGGSGGGGSGGGGSGGGGSGGGGSGGGGSGGGGSQVQLVQSGAEVKKPGASVKLSCTASGFNIKDDYIHWVKQAPGQGLEWIGRIDPADGHTKYAPKFQVKVTITADTSTSTAYLELSSLRSEDTAVYYCARYGYGREVFDYWGQGTTVTVSSASTKGPSVFPLAPCSRSTSESTAALGCLVKDYFPEPVTVSWNSGALTSGVHTFPAVLQSSGLYSLSSVVTVPSSSLGTKTYTCNVDHKPSNTKVDKRVGGGGSGGGGSEVQLVESGGGLVKPGGSLRLSCAASGFTFSNYAMSWVRQAPGKRLEWVATISNRGSYTYYPDSVKGRFTISRDNAKNSLYLQMNSLRAEDTALYYCARERPMDYWGQGTLVTVSSGGGGSGGGGSGGGGSDIQMTQSPSTLSASVGDRVTITCKASQDVGTAVAWYQQKPGKAPKLLIYWASTRHTGVPDRFSGSGSGTDFTLTISSLQAEDFAVYFCHQHSSNPLTFGQGTKLEIK | 44.4 nM | 201 nM | 1 nM | 0.00029 s⁻¹ | 300000 M⁻¹ s⁻¹ | 3 nM | 0.00022 s⁻¹ | 70000 M⁻¹ s⁻¹ | 
construct #19: αC1s scFab-(G4S)3-αBb F2A Fab (bispecific antibody) DIVLTQSPDSLAVSLGERATISCKASQSVDYDGDSYMNWYQQKPGQPPKILIYDASNLESGIPARFSGSGSGTDFTLTISSLEPEDFAIYYCQQSNEDPWTFGGGTKVEIKRTVAAPSVFIFPPSDEQLKSGTASVVCLLNNFYPREAKVQWKVDNALQSGNSQESVTEQDSKDSTYSLSSTLTLSKADYEKHKVYACEVTHQGLSSPVTKSFNRGECGGGGSGGGGSGGGGSGGGGSGGGGSGGGGSGGGGSQVQLVQSGAEVKKPGASVKLSCTASGFNIKDDYIHWVKQAPGQGLEWIGRIDPADGHTKYAPKFQVKVTITADTSTSTAYLELSSLRSEDTAVYYCARYGYGREVFDYWGQGTTVTVSSASTKGPSVFPLAPCSRSTSESTAALGCLVKDYFPEPVTVSWNSGALTSGVHTFPAVLQSSGLYSLSSVVTVPSSSLGTKTYTCNVDHKPSNTKVDKRVGGGGSGGGGSGGGGSEVQLVESGGGLVKPGGSLRLSCAASGFTFSNYAMSWVRQAPGKRLEWVATISNRGSYTYYPDSVKGRFTISRDNAKNSLYLQMNSLRAEDTALYYCARERPMDYWGQGTLVTVSSASTKGPSVFPLAPCSRSTSESTAALGCLVKDYFPEPVTVSWNSGALTSGVHTFPAVLQSSGLYSLSSVVTVPSSSLGTKTYTCNVDHKPSNTKVDKRV light: DIQMTQSPSTLSASVGDRVTITCKASQDVGTAVAWYQQKPGKAPKLLIYWASTRHTGVPDRFSGSGSGTDFTLTISSLQAEDFAVYFCHQHSSNPLTFGQGTKLEIKRTVAAPSVFIFPPSDEQLKSGTASVVCLLNNFYPREAKVQWKVDNALQSGNSQESVTEQDSKDSTYSLSSTLTLSKADYEKHKVYACEVTHQGLSSPVTKSFNRGEC | 34 nM |  |  |  |  |  |  |  | ~2090 nM
construct #6: αBb scFv-(G4S)2-αC1s scFv (bispecific antibody) EVQLVESGGGLVKPGGSLRLSCAASGFTFSNYAMSWVRQAPGKRLEWVATISNRGSYTYYPDSVKGRFTISRDNAKNSLYLQMNSLRAEDTALYYCARERPMDYWGQGTLVTVSSGGGGSGGGGSGGGGSDIQMTQSPSTLSASVGDRVTITCKASQDVGTAVAWYQQKPGKAPKLLIYWASTRHTGVPDRFSGSGSGTDFTLTISSLQAEDFAVYFCHQHSSNPLTFGQGTKLEIKGGGGSGGGGSQVQLVQSGAEVKKPGASVKLSCTASGFNIKDDYIHWVKQAPGQGLEWIGRIDPADGHTKYAPKFQVKVTITADTSTSTAYLELSSLRSEDTAVYYCARYGYGREVFDYWGQGTTVTVSSGGGGSGGGGSGGGGSDIVLTQSPDSLAVSLGERATISCKASQSVDYDGDSYMNWYQQKPGQPPKILIYDASNLESGIPARFSGSGSGTDFTLTISSLEPEDFAIYYCQQSNEDPWTFGGGTKVEIK | 118 nM |  |  |  |  |  |  |  | ~1260 nM
